What all share (experiment): cleavage_in_vitro
In series [1] the test system is T1, LPG10139 (Bacillus megaterium).
T1 sequence: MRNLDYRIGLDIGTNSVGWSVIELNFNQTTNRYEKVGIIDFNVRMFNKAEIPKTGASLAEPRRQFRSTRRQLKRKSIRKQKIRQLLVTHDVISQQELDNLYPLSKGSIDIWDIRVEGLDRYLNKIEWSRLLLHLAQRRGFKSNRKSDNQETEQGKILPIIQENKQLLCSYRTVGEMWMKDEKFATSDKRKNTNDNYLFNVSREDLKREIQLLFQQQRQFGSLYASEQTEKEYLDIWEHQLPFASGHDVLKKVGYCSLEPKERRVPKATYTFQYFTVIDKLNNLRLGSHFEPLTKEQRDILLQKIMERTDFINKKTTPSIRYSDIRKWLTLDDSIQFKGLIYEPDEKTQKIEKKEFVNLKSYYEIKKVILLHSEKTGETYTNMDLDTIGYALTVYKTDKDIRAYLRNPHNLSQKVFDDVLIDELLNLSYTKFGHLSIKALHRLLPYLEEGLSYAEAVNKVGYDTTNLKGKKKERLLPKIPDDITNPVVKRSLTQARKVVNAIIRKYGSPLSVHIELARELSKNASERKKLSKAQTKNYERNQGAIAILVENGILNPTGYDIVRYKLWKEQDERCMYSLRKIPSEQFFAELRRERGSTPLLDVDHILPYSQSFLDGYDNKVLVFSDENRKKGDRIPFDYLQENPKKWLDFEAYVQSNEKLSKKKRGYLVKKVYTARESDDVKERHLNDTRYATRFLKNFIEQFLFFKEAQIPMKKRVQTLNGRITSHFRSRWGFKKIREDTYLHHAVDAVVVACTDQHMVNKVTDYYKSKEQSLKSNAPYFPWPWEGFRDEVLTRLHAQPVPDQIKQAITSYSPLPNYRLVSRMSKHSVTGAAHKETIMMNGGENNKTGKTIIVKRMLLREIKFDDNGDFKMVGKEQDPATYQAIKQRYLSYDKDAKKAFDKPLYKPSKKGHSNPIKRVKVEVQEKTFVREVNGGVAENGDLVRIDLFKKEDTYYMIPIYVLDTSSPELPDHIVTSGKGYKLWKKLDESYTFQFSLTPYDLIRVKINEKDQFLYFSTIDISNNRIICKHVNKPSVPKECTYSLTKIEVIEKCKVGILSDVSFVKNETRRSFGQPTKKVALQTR
The conditions noted are these: PAM NNNNC.

The test system of series [2] is T2, LPG10136 (Bacillus endophyticus).
T2 sequence: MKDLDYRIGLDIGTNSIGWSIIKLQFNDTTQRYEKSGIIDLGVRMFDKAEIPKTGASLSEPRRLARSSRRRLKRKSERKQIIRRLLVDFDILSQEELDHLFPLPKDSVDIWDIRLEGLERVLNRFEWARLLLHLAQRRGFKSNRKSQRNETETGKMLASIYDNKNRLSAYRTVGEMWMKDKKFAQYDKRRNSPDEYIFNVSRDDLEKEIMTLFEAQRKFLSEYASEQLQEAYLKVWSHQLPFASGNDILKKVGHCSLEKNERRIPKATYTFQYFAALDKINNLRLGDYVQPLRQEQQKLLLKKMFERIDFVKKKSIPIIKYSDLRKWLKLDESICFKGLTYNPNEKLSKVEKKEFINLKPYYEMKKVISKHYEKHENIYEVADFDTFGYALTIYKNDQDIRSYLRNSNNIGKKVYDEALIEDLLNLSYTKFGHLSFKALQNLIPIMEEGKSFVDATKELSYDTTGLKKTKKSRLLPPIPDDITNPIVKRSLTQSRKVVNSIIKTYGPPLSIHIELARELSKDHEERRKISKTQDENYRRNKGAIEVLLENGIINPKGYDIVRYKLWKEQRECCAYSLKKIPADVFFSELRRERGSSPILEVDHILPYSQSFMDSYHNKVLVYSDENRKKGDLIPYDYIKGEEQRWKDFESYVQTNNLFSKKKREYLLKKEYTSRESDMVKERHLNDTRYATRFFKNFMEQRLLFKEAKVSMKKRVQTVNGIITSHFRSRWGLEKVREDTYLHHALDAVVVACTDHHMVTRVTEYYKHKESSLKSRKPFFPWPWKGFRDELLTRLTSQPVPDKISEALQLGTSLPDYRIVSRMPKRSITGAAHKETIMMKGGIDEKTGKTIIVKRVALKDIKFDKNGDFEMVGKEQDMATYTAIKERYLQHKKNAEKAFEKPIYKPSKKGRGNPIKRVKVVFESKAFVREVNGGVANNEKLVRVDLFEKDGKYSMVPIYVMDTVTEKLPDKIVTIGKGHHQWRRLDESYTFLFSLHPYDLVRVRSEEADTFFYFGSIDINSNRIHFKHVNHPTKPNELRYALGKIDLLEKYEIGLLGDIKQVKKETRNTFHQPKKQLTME
The conditions noted are these: PAM NNNNCC.

Series [3] concerns T3, LPG10145 (undetermined).
T3 sequence: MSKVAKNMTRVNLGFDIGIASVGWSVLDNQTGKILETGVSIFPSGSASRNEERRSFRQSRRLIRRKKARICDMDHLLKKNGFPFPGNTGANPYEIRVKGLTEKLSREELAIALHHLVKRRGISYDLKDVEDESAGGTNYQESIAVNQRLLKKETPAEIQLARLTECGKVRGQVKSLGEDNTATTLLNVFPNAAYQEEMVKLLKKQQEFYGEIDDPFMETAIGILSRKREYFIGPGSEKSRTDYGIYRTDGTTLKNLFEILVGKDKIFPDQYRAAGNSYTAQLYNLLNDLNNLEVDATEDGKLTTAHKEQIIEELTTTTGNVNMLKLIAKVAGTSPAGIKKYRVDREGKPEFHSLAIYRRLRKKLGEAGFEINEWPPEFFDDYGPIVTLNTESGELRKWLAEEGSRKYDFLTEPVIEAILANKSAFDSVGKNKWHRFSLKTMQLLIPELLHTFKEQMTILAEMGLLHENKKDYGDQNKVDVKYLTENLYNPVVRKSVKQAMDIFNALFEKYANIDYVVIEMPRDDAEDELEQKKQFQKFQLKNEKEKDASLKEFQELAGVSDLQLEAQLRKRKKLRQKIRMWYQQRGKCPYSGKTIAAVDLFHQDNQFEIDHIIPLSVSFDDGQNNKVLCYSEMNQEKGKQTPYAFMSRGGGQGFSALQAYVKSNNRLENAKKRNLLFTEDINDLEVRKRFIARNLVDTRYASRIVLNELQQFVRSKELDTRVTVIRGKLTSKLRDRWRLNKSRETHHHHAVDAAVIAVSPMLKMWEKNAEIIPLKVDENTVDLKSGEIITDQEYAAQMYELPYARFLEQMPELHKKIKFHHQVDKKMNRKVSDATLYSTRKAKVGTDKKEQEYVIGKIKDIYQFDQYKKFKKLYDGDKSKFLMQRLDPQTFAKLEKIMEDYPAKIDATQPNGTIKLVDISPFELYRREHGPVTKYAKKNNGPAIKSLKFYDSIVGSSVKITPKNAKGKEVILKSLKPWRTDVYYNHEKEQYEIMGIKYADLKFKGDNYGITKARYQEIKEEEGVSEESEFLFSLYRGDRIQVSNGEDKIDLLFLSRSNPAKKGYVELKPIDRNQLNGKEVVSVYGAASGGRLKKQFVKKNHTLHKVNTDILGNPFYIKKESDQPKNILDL
The note with it: PAM NNGG; 37C 120 min.

“GUCAUAGUCCCAUCAUAUCCAUUGAAAGCAAUGGAUAUGAUGUUUCUAUGAUAAGGGCUCUCUAAGAGAGACCUGUGGCGUUGGGGAUCGCCUGCCCGUUUCGACGGGUGUCUCCCCAUUU / GGACAGCAGCTTCCTATATCTCGTACAGGACCTC / GAGGTCCTGTACGAGATATAGGAAGCTGCTGTCC [LPG10139 sgRNA L1 ; Library 1 target AGGACCTC]” showed an activity (% target strand cleaved) in series [1] of 4.4.
As to “GUCAUAGUUCCACUAAAGCCAUUAAAGAAUGGCUUUGAUGUUUCUAUGAUAAGGGUUUCGACCCGUGGCGUUGGGGAUCGCCUGCCCAUUUCGAUGGGCGUCUCCCCAUUU / GATATAGACGTTGTGGCTGTTGTAGTAGGACTTC / GAAGTCCTACTACAACAGCCACAACGTCTATATC [LPG10136 sgRNA L2 ; Library 2 target AGGACTTC]”, in series [2] (suboptimal PAM context), the activity (% target strand cleaved) amounted to 11.3.
In series [3], “GUUAUUGUACUCUCAAGGAAUCAGAAAGACUGAUUCCUUGAGAAUCUACAAUAAUAAGGCUUUAUGCCGAAAUUCCCACUCUUAACGGAGUGGGUUUU / GGACAGCAGCTTCCTATATCTCGTACACGGATTC / GAATCCGTGTACGAGATATAGGAAGCTGCTGTCC [LPG10145 sgRNA L1 ; Library 1 target ACGGATTC]” had an activity (% target strand cleaved) of 92.9.
Consider “GUCAUAGUUCCACUAAAGCCAUUAAAGAAUGGCUUUGAUGUUUCUAUGAUAAGGGUUUCGACCCGUGGCGUUGGGGAUCGCCUGCCCAUUUCGAUGGGCGUCUCCCCAUUU / GGACAGCAGCTTCCTATATCTCGTACAGGACCTC / GAGGTCCTGTACGAGATATAGGAAGCTGCTGTCC [LPG10136 sgRNA L1 ; Library 1 target AGGACCTC]”, for which, in series [2] (37C 120 min), the activity (% target strand cleaved) turned out to be 5.
Turning to “GUCAUAGUCCCAUCAUAUCCAUUGAAAGCAAUGGAUAUGAUGUUUCUAUGAUAAGGGCUCUCUAAGAGAGACCUGUGGCGUUGGGGAUCGCCUGCCCGUUUCGACGGGUGUCUCCCCAUUU / GATATAGACGTTGTGGCTGTTGTAGTAGGACCTC / GAGGTCCTACTACAACAGCCACAACGTCTATATC [LPG10139 sgRNA L2 ; Library 2 target AGGACCTC]”, the activity (% target strand cleaved) in series [1] came to 7.3.
On to “GUCAUAGUUCCACUAAAGCCAUUAAAGAAUGGCUUUGAUGUUUCUAUGAUAAGGGUUUCGACCCGUGGCGUUGGGGAUCGCCUGCCCAUUUCGAUGGGCGUCUCCCCAUUU / GATATAGACGTTGTGGCTGTTGTAGTAGGACCTC / GAGGTCCTACTACAACAGCCACAACGTCTATATC [LPG10136 sgRNA L2 ; Library 2 target AGGACCTC]”, for which the activity (% target strand cleaved) in series [2] (37C 120 min) amounted to 30.9.
In the case of “GUUAUUGUACUCUCAAGGAAUCAGAAAGACUGAUUCCUUGAGAAUCUACAAUAAUAAGGCUUUAUGCCGAAAUUCCCACUCUUAACGGAGUGGGUUUU / GATATAGACGTTGTGGCTGTTGTAGTACGGATTC / GAATCCGTACTACAACAGCCACAACGTCTATATC [LPG10145 sgRNA L2 ; Library 2 target ACGGATTC]”, the activity (% target strand cleaved) in series [3] is 100.

The values above are taken from patent US20240376455.
